{
  "source": "patent US20200087373A1",
  "about": "(UNIVERSITY OF COPENHAGEN, published 2020)",
  "binders": {"B1": {"name": "AT180 [hGIP(5-30)NH2[Q20K]-C16diacid/20] (peptide)", "peptide": "TFISDYSIAMDKIHQK(C16 diacid)DFVNWLLAQK-NH2", "modifications": "N-terminus assumed", "SMILES": "CC[C@H](C)[C@H](NC(=O)[C@H](CO)NC(=O)[C@H](Cc1ccc(O)cc1)NC(=O)[C@H](CC(=O)O)NC(=O)[C@H](CO)NC(=O)[C@@H](NC(=O)[C@H](Cc1ccccc1)NC(=O)[C@@H](N)[C@@H](C)O)[C@@H](C)CC)C(=O)N[C@@H](C)C(=O)N[C@@H](CCSC)C(=O)N[C@@H](CC(=O)O)C(=O)N[C@@H](CCCCN)C(=O)N[C@H](C(=O)N[C@@H](Cc1c[nH]cn1)C(=O)N[C@@H](CCC(N)=O)C(=O)N[C@@H](CCCCNC(=O)CCCCCCCCCCCCCCC(=O)O)C(=O)N[C@@H](CC(=O)O)C(=O)N[C@@H](Cc1ccccc1)C(=O)N[C@H](C(=O)N[C@@H](CC(N)=O)C(=O)N[C@@H](Cc1c[nH]c2ccccc12)C(=O)N[C@@H](CC(C)C)C(=O)N[C@@H](CC(C)C)C(=O)N[C@@H](C)C(=O)N[C@@H](CCC(N)=O)C(=O)N[C@@H](CCCCN)C(N)=O)C(C)C)[C@@H](C)CC"}, "B2": {"name": "AT183 [hGIP(5-30)NH2[V23K]-C16diacid/23] (peptide)", "peptide": "TFISDYSIAMDKIHQQDFK(C16 diacid)NWLLAQK-NH2", "modifications": "N-terminus assumed", "SMILES": "CC[C@H](C)[C@H](NC(=O)[C@H](CO)NC(=O)[C@H](Cc1ccc(O)cc1)NC(=O)[C@H](CC(=O)O)NC(=O)[C@H](CO)NC(=O)[C@@H](NC(=O)[C@H](Cc1ccccc1)NC(=O)[C@@H](N)[C@@H](C)O)[C@@H](C)CC)C(=O)N[C@@H](C)C(=O)N[C@@H](CCSC)C(=O)N[C@@H](CC(=O)O)C(=O)N[C@@H](CCCCN)C(=O)N[C@H](C(=O)N[C@@H](Cc1c[nH]cn1)C(=O)N[C@@H](CCC(N)=O)C(=O)N[C@@H](CCC(N)=O)C(=O)N[C@@H](CC(=O)O)C(=O)N[C@@H](Cc1ccccc1)C(=O)N[C@@H](CCCCNC(=O)CCCCCCCCCCCCCCC(=O)O)C(=O)N[C@@H](CC(N)=O)C(=O)N[C@@H](Cc1c[nH]c2ccccc12)C(=O)N[C@@H](CC(C)C)C(=O)N[C@@H](CC(C)C)C(=O)N[C@@H](C)C(=O)N[C@@H](CCC(N)=O)C(=O)N[C@@H](CCCCN)C(N)=O)[C@@H](C)CC"}, "B3": {"name": "AT182 [hGIP(5-30)NH2[F22K]-C16diacid/22] (peptide)", "peptide": "TFISDYSIAMDKIHQQDK(C16 diacid)VNWLLAQK-NH2", "modifications": "N-terminus assumed", "SMILES": "CC[C@H](C)[C@H](NC(=O)[C@H](CO)NC(=O)[C@H](Cc1ccc(O)cc1)NC(=O)[C@H](CC(=O)O)NC(=O)[C@H](CO)NC(=O)[C@@H](NC(=O)[C@H](Cc1ccccc1)NC(=O)[C@@H](N)[C@@H](C)O)[C@@H](C)CC)C(=O)N[C@@H](C)C(=O)N[C@@H](CCSC)C(=O)N[C@@H](CC(=O)O)C(=O)N[C@@H](CCCCN)C(=O)N[C@H](C(=O)N[C@@H](Cc1c[nH]cn1)C(=O)N[C@@H](CCC(N)=O)C(=O)N[C@@H](CCC(N)=O)C(=O)N[C@@H](CC(=O)O)C(=O)N[C@@H](CCCCNC(=O)CCCCCCCCCCCCCCC(=O)O)C(=O)N[C@H](C(=O)N[C@@H](CC(N)=O)C(=O)N[C@@H](Cc1c[nH]c2ccccc12)C(=O)N[C@@H](CC(C)C)C(=O)N[C@@H](CC(C)C)C(=O)N[C@@H](C)C(=O)N[C@@H](CCC(N)=O)C(=O)N[C@@H](CCCCN)C(N)=O)C(C)C)[C@@H](C)CC"}, "B4": {"name": "AT185 [hGIP(5-30)NH2[W25K]-C16diacid/25] (peptide)", "peptide": "TFISDYSIAMDKIHQQDFVNK(C16 diacid)LLAQK-NH2", "modifications": "N-terminus assumed", "SMILES": "CC[C@H](C)[C@H](NC(=O)[C@H](CO)NC(=O)[C@H](Cc1ccc(O)cc1)NC(=O)[C@H](CC(=O)O)NC(=O)[C@H](CO)NC(=O)[C@@H](NC(=O)[C@H](Cc1ccccc1)NC(=O)[C@@H](N)[C@@H](C)O)[C@@H](C)CC)C(=O)N[C@@H](C)C(=O)N[C@@H](CCSC)C(=O)N[C@@H](CC(=O)O)C(=O)N[C@@H](CCCCN)C(=O)N[C@H](C(=O)N[C@@H](Cc1c[nH]cn1)C(=O)N[C@@H](CCC(N)=O)C(=O)N[C@@H](CCC(N)=O)C(=O)N[C@@H](CC(=O)O)C(=O)N[C@@H](Cc1ccccc1)C(=O)N[C@H](C(=O)N[C@@H](CC(N)=O)C(=O)N[C@@H](CCCCNC(=O)CCCCCCCCCCCCCCC(=O)O)C(=O)N[C@@H](CC(C)C)C(=O)N[C@@H](CC(C)C)C(=O)N[C@@H](C)C(=O)N[C@@H](CCC(N)=O)C(=O)N[C@@H](CCCCN)C(N)=O)C(C)C)[C@@H](C)CC"}, "B5": {"name": "AT186 [hGIP(5-30)NH2[L26K]-C16diacid/26] (peptide)", "peptide": "TFISDYSIAMDKIHQQDFVNWK(C16 diacid)LAQK-NH2", "modifications": "N-terminus assumed", "SMILES": "CC[C@H](C)[C@H](NC(=O)[C@H](CO)NC(=O)[C@H](Cc1ccc(O)cc1)NC(=O)[C@H](CC(=O)O)NC(=O)[C@H](CO)NC(=O)[C@@H](NC(=O)[C@H](Cc1ccccc1)NC(=O)[C@@H](N)[C@@H](C)O)[C@@H](C)CC)C(=O)N[C@@H](C)C(=O)N[C@@H](CCSC)C(=O)N[C@@H](CC(=O)O)C(=O)N[C@@H](CCCCN)C(=O)N[C@H](C(=O)N[C@@H](Cc1c[nH]cn1)C(=O)N[C@@H](CCC(N)=O)C(=O)N[C@@H](CCC(N)=O)C(=O)N[C@@H](CC(=O)O)C(=O)N[C@@H](Cc1ccccc1)C(=O)N[C@H](C(=O)N[C@@H](CC(N)=O)C(=O)N[C@@H](Cc1c[nH]c2ccccc12)C(=O)N[C@@H](CCCCNC(=O)CCCCCCCCCCCCCCC(=O)O)C(=O)N[C@@H](CC(C)C)C(=O)N[C@@H](C)C(=O)N[C@@H](CCC(N)=O)C(=O)N[C@@H](CCCCN)C(N)=O)C(C)C)[C@@H](C)CC"}, "B6": {"name": "AT184 [hGIP(5-30)NH2[N24K]-C16diacid/24] (peptide)", "peptide": "TFISDYSIAMDKIHQQDFVK(C16 diacid)WLLAQK-NH2", "modifications": "N-terminus assumed", "SMILES": "CC[C@H](C)[C@H](NC(=O)[C@H](CO)NC(=O)[C@H](Cc1ccc(O)cc1)NC(=O)[C@H](CC(=O)O)NC(=O)[C@H](CO)NC(=O)[C@@H](NC(=O)[C@H](Cc1ccccc1)NC(=O)[C@@H](N)[C@@H](C)O)[C@@H](C)CC)C(=O)N[C@@H](C)C(=O)N[C@@H](CCSC)C(=O)N[C@@H](CC(=O)O)C(=O)N[C@@H](CCCCN)C(=O)N[C@H](C(=O)N[C@@H](Cc1c[nH]cn1)C(=O)N[C@@H](CCC(N)=O)C(=O)N[C@@H](CCC(N)=O)C(=O)N[C@@H](CC(=O)O)C(=O)N[C@@H](Cc1ccccc1)C(=O)N[C@H](C(=O)N[C@@H](CCCCNC(=O)CCCCCCCCCCCCCCC(=O)O)C(=O)N[C@@H](Cc1c[nH]c2ccccc12)C(=O)N[C@@H](CC(C)C)C(=O)N[C@@H](CC(C)C)C(=O)N[C@@H](C)C(=O)N[C@@H](CCC(N)=O)C(=O)N[C@@H](CCCCN)C(N)=O)C(C)C)[C@@H](C)CC"}, "B7": {"name": "AT181 [hGIP(5-30)NH2[D21K]-C16diacid/21] (peptide)", "peptide": "TFISDYSIAMDKIHQQK(C16 diacid)FVNWLLAQK-NH2", "modifications": "N-terminus assumed", "SMILES": "CC[C@H](C)[C@H](NC(=O)[C@H](CO)NC(=O)[C@H](Cc1ccc(O)cc1)NC(=O)[C@H](CC(=O)O)NC(=O)[C@H](CO)NC(=O)[C@@H](NC(=O)[C@H](Cc1ccccc1)NC(=O)[C@@H](N)[C@@H](C)O)[C@@H](C)CC)C(=O)N[C@@H](C)C(=O)N[C@@H](CCSC)C(=O)N[C@@H](CC(=O)O)C(=O)N[C@@H](CCCCN)C(=O)N[C@H](C(=O)N[C@@H](Cc1c[nH]cn1)C(=O)N[C@@H](CCC(N)=O)C(=O)N[C@@H](CCC(N)=O)C(=O)N[C@@H](CCCCNC(=O)CCCCCCCCCCCCCCC(=O)O)C(=O)N[C@@H](Cc1ccccc1)C(=O)N[C@H](C(=O)N[C@@H](CC(N)=O)C(=O)N[C@@H](Cc1c[nH]c2ccccc12)C(=O)N[C@@H](CC(C)C)C(=O)N[C@@H](CC(C)C)C(=O)N[C@@H](C)C(=O)N[C@@H](CCC(N)=O)C(=O)N[C@@H](CCCCN)C(N)=O)C(C)C)[C@@H](C)CC"}},
  "note": "Ends that are not written are not given here. * marks the point of attachment. C16 diacid = O=C(O)CCCCCCCCCCCCCCC(=O)*",
  "data": [
    {"target": "T1, human GIP receptor (human, UniProt P48546 22-466)", "T1 construct": "whole, on cells; Transiently transfected COS-7 cells expressing the human GIP receptor; also called hGIPR", "T1 sequence (looked up)": "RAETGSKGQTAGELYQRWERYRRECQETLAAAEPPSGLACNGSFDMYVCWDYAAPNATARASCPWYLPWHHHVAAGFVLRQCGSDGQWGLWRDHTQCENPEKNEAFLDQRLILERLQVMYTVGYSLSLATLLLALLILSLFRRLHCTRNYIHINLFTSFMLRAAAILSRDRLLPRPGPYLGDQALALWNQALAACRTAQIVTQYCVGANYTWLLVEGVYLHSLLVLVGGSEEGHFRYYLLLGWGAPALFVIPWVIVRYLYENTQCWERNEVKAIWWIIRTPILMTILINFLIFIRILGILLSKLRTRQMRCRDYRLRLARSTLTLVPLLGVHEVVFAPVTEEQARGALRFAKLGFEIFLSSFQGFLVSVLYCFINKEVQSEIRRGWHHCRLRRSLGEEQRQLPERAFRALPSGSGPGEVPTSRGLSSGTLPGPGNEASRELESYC", "test": "125I-hGIP(1-42) competition binding, COS-7 cells expressing human GIPR, without HSA;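 also: nonspecific binding defined as radioligand bound to cells lacking the transfected receptor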", "units": {"Ki": "nM"}, "protocol": "(§1) After incubation, the cells were washed twice in ice-cold binding buffer (+/−2% HSA) and lysed using 200 mM NaOH with 1% SDS for 30 min. Nonspecific binding was determined as the binding of radioactive ligand to untransfected cells.", "values": [
      {"binder": "B1", "Ki": 82.8},
      {"binder": "B2", "Ki": 5350},
      {"binder": "B3", "Ki": 841},
      {"binder": "B4", "Ki": 67.1},
      {"binder": "B5", "Ki": 105},
      {"binder": "B6", "Ki": 224},
      {"binder": "B7", "Ki": 33.3}
    ]},
    {"target": "T1, human GIP receptor", "test": "125I-hGIP(1-42) competition binding, COS-7 cells expressing human GIPR, with 2% HSA;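 also: nonspecific signal taken as radioligand bound to untransfected cells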", "units": {"Ki": "nM"}, "protocol": "as §1", "values": [
      {"binder": "B1", "Ki": 533},
      {"binder": "B2", "Ki": 23300},
      {"binder": "B3", "Ki": 1190},
      {"binder": "B4", "Ki": 336},
      {"binder": "B5", "Ki": 830},
      {"binder": "B6", "Ki": 871},
      {"binder": "B7", "Ki": 120}
    ]},
    {"target": "T1, human GIP receptor", "test": "cell-based or functional assay", "units": {"cAMP accumulation Fold (fold change from GIP(5-30)NH2)": "fold", "cAMP accumulation IC50": "nM"}, "values": [
      {"binder": "B1", "cAMP accumulation Fold (fold change from GIP(5-30)NH2)": 1.7, "cAMP accumulation IC50": 46.8, "cAMP accumulation logIC50": "-7.33 log(M)"},
      {"binder": "B2", "cAMP accumulation Fold (fold change from GIP(5-30)NH2)": 55, "cAMP accumulation IC50": 1510, "cAMP accumulation logIC50": "-5.82 log(M)"},
      {"binder": "B3", "cAMP accumulation Fold (fold change from GIP(5-30)NH2)": 21.9, "cAMP accumulation IC50": 603, "cAMP accumulation logIC50": "-6.22 log(M)"},
      {"binder": "B4", "cAMP accumulation Fold (fold change from GIP(5-30)NH2)": 2.4, "cAMP accumulation IC50": 66.1, "cAMP accumulation logIC50": "-7.18 log(M)"},
      {"binder": "B5", "cAMP accumulation Fold (fold change from GIP(5-30)NH2)": 2.6, "cAMP accumulation IC50": 70.8, "cAMP accumulation logIC50": "-7.15 log(M)"},
      {"binder": "B6", "cAMP accumulation Fold (fold change from GIP(5-30)NH2)": 3.9, "cAMP accumulation IC50": 107, "cAMP accumulation logIC50": "-6.97 log(M)"},
      {"binder": "B7", "cAMP accumulation Fold (fold change from GIP(5-30)NH2)": 0.5, "cAMP accumulation IC50": 12.6, "cAMP accumulation logIC50": "-7.9 log(M)"}
    ]},
    {"target": "T1, human GIP receptor", "test": "ratio of Ki with 2% HSA to Ki without HSA, 125I-hGIP competition binding on hGIPR COS-7 cells;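 also: nonspecific binding was defined as radioligand signal on cells lacking the receptor transfection, with cell lysates measured after washes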", "units": {"Fold (Ki + HSA / Ki - HSA)": "fold"}, "protocol": "as §1", "values": [
      {"binder": "B1", "Fold (Ki + HSA / Ki - HSA)": 6.4},
      {"binder": "B2", "Fold (Ki + HSA / Ki - HSA)": 4.4},
      {"binder": "B3", "Fold (Ki + HSA / Ki - HSA)": 1.4},
      {"binder": "B4", "Fold (Ki + HSA / Ki - HSA)": 5},
      {"binder": "B5", "Fold (Ki + HSA / Ki - HSA)": 7.9},
      {"binder": "B6", "Fold (Ki + HSA / Ki - HSA)": 3.9},
      {"binder": "B7", "Fold (Ki + HSA / Ki - HSA)": 3.6}
    ]}
  ]
}
